Data: patent US20160257728A1 (JOINT CENTER FOR BIOSCIENCES, published 2016)

T1: BMPRIb (ALK6) ECD-Fc (human, UniProt O00238 14-126)
T1 construct: extracellular domain; Bought from R&D Systems as C-terminal Fc-tagged chimera; not shown: C-terminal human IgG1 Fc tag
T1 sequence (looked up): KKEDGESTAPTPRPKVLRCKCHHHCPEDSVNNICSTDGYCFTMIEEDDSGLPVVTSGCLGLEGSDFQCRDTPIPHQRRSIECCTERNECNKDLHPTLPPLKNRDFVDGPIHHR

T2: ActRIIb ECD-Fc (human, UniProt Q13705 19-137, limits assumed)
T2 construct: extracellular domain; Bought from R&D Systems as C-terminal Fc-tagged chimera; not shown: C-terminal human IgG1 Fc tag
T2 sequence (looked up): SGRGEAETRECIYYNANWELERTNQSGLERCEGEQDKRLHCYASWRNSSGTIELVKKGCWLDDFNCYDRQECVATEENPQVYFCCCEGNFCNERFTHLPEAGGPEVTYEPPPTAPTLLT

T3: BMPRII ECD-Fc (human, UniProt Q13873 27-150, limits assumed)
T3 construct: extracellular domain; Bought from R&D Systems as C-terminal Fc-tagged chimera; not shown: C-terminal human IgG1 Fc tag
T3 sequence (looked up): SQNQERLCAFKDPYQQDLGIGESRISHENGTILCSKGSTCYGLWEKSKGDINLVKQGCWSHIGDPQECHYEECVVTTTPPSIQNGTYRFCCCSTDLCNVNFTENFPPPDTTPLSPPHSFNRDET

B1: ActRIb (ALK4) ECD-Fc (Fc fusion, UniProt P36896 24-126, looked up)
chain: SGPRGVQALLCACTSCLQANYTCETDGACMVSIFNLDGMEHHVRTCIPKVELVPAGKPFYCLSSEDLRNTHCCYTDYCNRIDLRVPSGHLKEPEHPSMWGPVE
notes: extracellular domain; Bought from R&D Systems as C-terminal Fc-tagged chimera; not shown: C-terminal human IgG1 Fc tag
B2: ActRIa (ALK2) ECD-Fc (Fc fusion, UniProt Q04771 21-123, looked up)
chain: MEDEKPKVNPKLYMCVCEGLSCGNEDHCEGQQCFSSLSINDGFHVYQKGCFQVYEQGKMTCKTPPSPGQAVECCQGDWCNRNITAQLPTKGKSFPGTQNFHLE
notes: as for B1
B3: ALK7 ECD-Fc (Fc fusion, UniProt Q8NER5 22-113, looked up)
chain: LSPGLKCVCLLCDSSNFTCQTEGACWASVMLTNGKEQVIKSCVSLPELNAQVFCHSSNNVTKTECCFTDFCNNITLHLPTASPNAPKLGPME
notes: as for B1
B4: MB109 protein (bioactive recombinant human BMP-9 expressed in E. coli and refolded; functional dimer) (ligand)
chain: MSAGAGSHCQKTSLRVNFEDIGWDSWIIAPKEYEAYECKGGCFFPLADDVTPTKHAIVQTLVHLKFPTKVGKACCVPTKLSPISVLYKDDMGVPTLKYHYEGMSVAECGCR
notes: also called purified MB109
B5: TGF-betaRI (ALK5) ECD-Fc (Fc fusion, UniProt P36897 34-126, looked up)
chain: LQCFCHLCTKDNFTCVTDGLCFVSVTETTDKVIHNSMCIAEIDLIPRDRPFVCAPSSKTGSVTTTYCCNQDHCNKIELPTTVKSSPGLGPVEL
notes: extracellular domain; Bought from R&D Systems as C-terminal Fc-tagged chimera; also called TGFβRI; not shown: C-terminal human IgG1 Fc tag

How the values were obtained:
[1] = target: B4; assay: SPR (BIAcore 3000), ECD-Fc on CM5 chip, MB109 as analyte
Description: (§1) The receptor ECDs were purchased from R&D Systems (Minneapolis, USA) as C-terminal Fc-tagged chimera. The binding affinities were measured using a BIAcore 3000 (GE Healthcare, USA) following a protocol described previously by Allendorph et al. with minor modification (see, e.g., Allendorph et al., Plos One 6(11):e26402 (2011), and Allendorph et al., Proceedings of the National Academy of Sciences of the United States of America 103(20):7643-7648, 2006). In brief, the ECD-Fc proteins were prepared in a pH 4.0 solution and captured on flow cell 2, 3 and 4 of the CM5 sensor chip at a flow rate of 10 μL/min until the density researched ˜1,000 response units. Flow cell 1 was left blank for background subtraction. For kinetic analysis, purified MB109 was prepared in a series of 2-fold dilution in an assay solution (10 mM HEPES, pH 7.4, 150 mM NaCl, 3.4 mM EDTA and 0.005% Tween-20) and injected over the flow cells at a flow rate of […]. All tests were performed using a set of 2-fold diluted protein concentrations from 20 to 0.3 nM plus the assay solution as a blank. The data fitting was performed using a minimum of 4 concentrations and a global 1:1 Langmuir binding with mass transfer model.
(§2) To determine receptor binding specificity of MB109, purified MB109 was subjected to surface plasmon resonance analysis to determine its binding affinities to immobilized extracellular domains (ECDs) of Type I and Type II receptors, including ALK1, ActRIa (ALK2), ActRIb (ALK4), BMPRIa (ALK3), BMPRIb (ALK6), TGFβRI (ALK5), ALK7, ActRIIa, ActRIIb, BMPRII, TGF-βRII and MISRII. Among these receptor ECDs, MB109 had strong binding affinity only to ALK1, ActRIIb and BMPRII, while the binding to the other receptor ECDs were either very transient (to ActRIIa) or non-detectable (see TABLE 2).

TGF-βRII ECD-Fc = target: T4, TGF-βRII ECD-Fc (human, UniProt P37173 23-166); assay: as above
T4 construct: extracellular domain; Bought from R&D Systems as C-terminal Fc-tagged chimera; not shown: C-terminal human IgG1 Fc tag
T4 sequence (P37173 23-166): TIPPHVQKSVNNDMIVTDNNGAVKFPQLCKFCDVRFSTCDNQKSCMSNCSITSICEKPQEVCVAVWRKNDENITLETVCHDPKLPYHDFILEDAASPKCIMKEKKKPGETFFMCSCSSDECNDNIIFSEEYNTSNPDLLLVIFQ
Description: as §1, §2

BMPRIb (ALK6) ECD-Fc = target: T1, BMPRIb (ALK6) ECD-Fc; assay: as above
Description: as §1, §2

MISRII ECD-Fc = target: T5, MISRII ECD-Fc (human, UniProt Q16671 18-149, limits assumed); assay: as above
T5 construct: extracellular domain; Bought from R&D Systems as C-terminal Fc-tagged chimera; not shown: C-terminal human IgG1 Fc tag
T5 sequence (Q16671 18-149 limits assumed): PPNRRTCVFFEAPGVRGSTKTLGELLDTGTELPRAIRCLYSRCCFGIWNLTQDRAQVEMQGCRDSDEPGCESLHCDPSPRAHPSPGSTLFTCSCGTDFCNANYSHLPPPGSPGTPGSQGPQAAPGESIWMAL
Description: as §1, §2

BMPRIa (ALK3) ECD-Fc = target: T6, BMPRIa (ALK3) ECD-Fc (human, UniProt P36894 24-152, limits assumed); assay: as above
T6 construct: extracellular domain; Bought from R&D Systems as C-terminal Fc-tagged chimera; not shown: C-terminal human IgG1 Fc tag
T6 sequence (P36894 24-152 limits assumed): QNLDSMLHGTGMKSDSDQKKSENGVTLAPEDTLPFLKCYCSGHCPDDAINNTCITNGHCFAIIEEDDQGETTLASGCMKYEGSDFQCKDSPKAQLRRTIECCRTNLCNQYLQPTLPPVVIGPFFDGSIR
Description: as §1, §2

ActRIIa ECD-Fc = target: T7, ActRIIa ECD-Fc (human, UniProt P27037 20-135, limits assumed); assay: SPR (BIAcore 3000), ECD-Fc on CM5 chip, MB109 as analyte, global 1:1 Langmuir with mass transfer
T7 construct: extracellular domain; Bought from R&D Systems as C-terminal Fc-tagged chimera; not shown: C-terminal human IgG1 Fc tag
T7 sequence (P27037 20-135 limits assumed): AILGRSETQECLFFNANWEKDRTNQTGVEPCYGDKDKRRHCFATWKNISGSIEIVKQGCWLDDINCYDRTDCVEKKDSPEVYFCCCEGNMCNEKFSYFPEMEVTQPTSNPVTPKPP
Description: as §1, §2

ActRIIb ECD-Fc = target: T2, ActRIIb ECD-Fc; assay: as above
Description: as §1, §2

BMPRII ECD-Fc = target: T3, BMPRII ECD-Fc; assay: as above
Description: as §1, §2

Binder: B1
binding result [1]: no binding (tested: 20 to 0.3 nM)

Binder: B2
binding result [1]: no binding (tested: 20 to 0.3 nM)

Binder: B3
binding result [1]: no binding (tested: 20 to 0.3 nM)

Binder: B4
binding result (TGF-βRII ECD-Fc): no binding (tested: 20 to 0.3 nM)
binding result (BMPRIb (ALK6) ECD-Fc): no binding (tested: 20 to 0.3 nM)
binding result (MISRII ECD-Fc): no binding (tested: 20 to 0.3 nM)
binding result (BMPRIa (ALK3) ECD-Fc): no binding (tested: 20 to 0.3 nM)
Kd (ActRIIa ECD-Fc): 4.27 nM
koff (ActRIIa ECD-Fc): 0.0121 s⁻¹
kon (ActRIIa ECD-Fc): 2.85e+06 M⁻¹ s⁻¹
Kd (ActRIIb ECD-Fc): 0.154 nM
koff (ActRIIb ECD-Fc): 0.00152 s⁻¹
kon (ActRIIb ECD-Fc): 9.91e+06 M⁻¹ s⁻¹
Kd (BMPRII ECD-Fc): 0.33 nM
koff (BMPRII ECD-Fc): 0.00153 s⁻¹
kon (BMPRII ECD-Fc): 4.63e+06 M⁻¹ s⁻¹

Binder: B5
binding result [1]: no binding (tested: 20 to 0.3 nM)
